Measured values: patent US11407825B2, “NaPi2b-targeted polymer antibody-drug conjugates and methods of use thereof” (Mersana Therapeutics, Inc., priority 2018, dated 2022)

Assay: Phase 1b dose escalation study of XMT-1536: safety and tolerability (adverse events, DLT)
Format: in vivo, human
Description: The study presented herein is an open label, multi-center Phase 1b study of XMT-1536 administered as an intravenous infusion once every three or four weeks. The dose escalation (DES) part of the study will establish the maximum tolerated dose (MTD) or recommended Phase 2 dose (RP2D) for XMT-1536 in patients with a number of tumor types likely to express NaPi2b, with a focus on patients with platinum-resistant ovarian cancer and non-squamous non-small cell lung cancer (NSCLC). […] The RP2D may differ from the MTD and may take into account tolerability, pharmacokinetic and pharmacodynamic measures, and efficacy of XMT-1536 based on RECIST 1.1. After the first cycle, patients may continue to receive XMT-1536 until disease progression provided the drug is well-tolerated and patients continue to derive clinical benefit in the opinion of the Investigator. The DES segment of the study utilized an accelerated titration design. The first 3-week cycle of treatment constitutes the dose limiting toxicity (DLT) evaluation period. For the first two dose levels, a minimum of 1 patient was treated at each dose level. If this patient experiences a treatment-emergent adverse event of Grade 2 or higher, 2 additional patients will be added at this dose level, and the study will subsequently follow a 3+3 design, as described below. […] Starting with Dose Level 3, the study will follow a standard 3+3 design, with 3 patients enrolled initially at each dose level. […] However, in the event of 1 DLT, 3 additional patients will be enrolled at the same dose level. Any dose level with 2 or more DLTs will be considered to exceed the MTD and subsequent patients will be enrolled at lower dose level(s). After the first cycle, patients may continue to receive XMT-1536 until disease progression if the drug is well-tolerated and patients continue to derive clinical benefit in the opinion of the Investigator.
After an August 2018 protocol amendment, each cycle will be 4-week (28 day) dose cycle. The first two, 4-week cycles of treatment (56 days) constitutes the dose limiting toxicity (DLT) evaluation period. Beginning with this amendment, up to 10 patients will be enrolled for evaluation at 20.0 mg/m^2 under the new 4-week cycle dose regimen. If that dose is cleared by the SRC, subsequent dose groups will follow a modified 3+3 design. Three patients will be enrolled initially and if toxicity issues arise, the SRC will review all pertinent data and may decide to add more patients to fully evaluate a dose in question and/or lower the dose. […] The observation period for DLTs is 56 days, between Day 1 through the end of Cycle 2 which includes the pre-dose assessments before receiving the Cycle 3 dose. A maximum of ten patients will be enrolled per dose level prior to the SRM. that will be conducted no later than 5 days after at least the sixth patient dosed in each level has completed Cycle 2, Day 28 evaluations. The data available for the patients dosed in all prior will be factored into the data review for each applicable dose escalation SRM. Any dose level with 2 or more DLTs occurring in 6 or fewer treated patients will be considered to exceed the MTD and subsequent patients will be enrolled at lower dose level(s). After the second cycle, patients may continue to receive XMT-1536 until disease progression if the drug is well-tolerated and patients continue to derive clinical benefit in the opinion of the Investigator. After completion of DES, the EXP segment of the study will be opened.
All adverse events will be graded according to the National Cancer Institute (NCI) Common Terminology Criteria version (CTCAE v4.03). The observation period for DLTs is 56 days, between Day 1 through end of Cycle 2 which includes the pre-dose assessments before receiving the Cycle 3 dose. […]

B1: XMT-1536: about 10-15 molecules of auristatin F-hydroxypropyl amide conjugated to a cysteine moiety of NaPi2b monoclonal antibody XMT-1535 via a PHF scaffold (conjugate, chains of the INN, looked up)
VH: QVQLVQSGAEVVKPGASVKMSCKASGYTFTGYNIHWVKQAPGQGLEWIGAIYPGNGDTSYKQKFRGRATLTADTSTSTVYMELSSLRSEDSAVYYCARGETARATFAYWGQGTLVTVSS
VL: DIQMTQSPSSLSASVGDRVTITCSASQDIGNFLNWYQQKPGKTVKVLIYYTSSLYSGVPSRFSGSGSGTDYTLTISSLQPEDFATYYCQQYSKLPLTFGQGTKLELK
modifications: auristatin F-hydroxypropyl amide via PHF scaffold
notes: about 10-15 molecules of auristatin F-hydroxypropyl amide conjugated to a cysteine moiety of NaPi2b monoclonal antibody XMT-1535 via a PHF scaffold
30 mg/m^2, 28-day cycle, as of August 2019
  number of DLT: One
30 mg/m^2, 28-day cycle, as of February 2019
  number of DLT: one
36 mg/m^2, 28-day cycle, as of August 2019
  number of DLT: one
40 mg/m^2, 21-day cycle, as of February 2019
  number of DLT: One
DL4 (20 mg/m^2)
  possible treatment related SAE: Grade 3 cardiac failure congestion
DL 4, 21-day cycle, as of February 2019
  SAE related to study drug: congestive heart failure
DL5 (30 mg/m^2)
  possible treatment related SAE: Grade 2 pyrexia
DL 5, 30 mg/m^2, 21-day cycle, as of February 2019
  SAE related to study drug: pyrexia
DL 5A
  ALT or bilirubin elevation: no elevation of ALT or bilirubin
  time for AST elevation to return to Grade 1: ≤ 13 days
  time for AST elevation to return to Grade 2: ≤ 7 days
DL 5A, alkaline phosphatase
  finding accompanying AST elevation: Grade 1 alkaline phosphatase elevation
DL 5A, cycle 1, day 8
  dose limiting toxicity: Grade 3 AST
DL6
  bilirubin elevation: no elevation of bilirubin
  time for ALT elevation to resolve to Grade 1: ≤ 8 days
  time for AST elevation to return to Grade 1: ≤ 21 days
DL6, ALT
  finding accompanying AST elevation: Grade 2 ALT elevation
DL6, alkaline phosphatase
  finding accompanying AST elevation: Grade 1 alkaline phosphatase elevation
DL6, cycle 1, day 8
  dose limiting toxicity: Grade 3 AST
TRAE, N = 37, May 10, 2019
  Aspartate aminotransferase (AST) increased Grade 1, patients: 3
  Aspartate aminotransferase (AST) increased Grade 1, percent of patients: (8) %
  Aspartate aminotransferase (AST) increased Grade 2, patients: 2
  Aspartate aminotransferase (AST) increased Grade 2, percent of patients: (5) %
  Aspartate aminotransferase (AST) increased Grade 3, patients: 4
  Aspartate aminotransferase (AST) increased Grade 3, percent of patients: 11%
  Aspartate aminotransferase (AST) increased Total, patients: 9
  Aspartate aminotransferase (AST) increased Total, percent of patients: (24) %
  Blood alkaline phosphatase increased Grade 1, patients: 6
  Blood alkaline phosphatase increased Grade 1, percent of patients: (16) %
  Blood alkaline phosphatase increased Grade 2, patients: 0
  Blood alkaline phosphatase increased Grade 3, patients: 0
  Blood alkaline phosphatase increased Total, patients: 6
  Blood alkaline phosphatase increased Total, percent of patients: (16) %
  Decreased appetite Grade 1, patients: 1
  Decreased appetite Grade 1, percent of patients: (3) %
  Decreased appetite Grade 2, patients: 6
  Decreased appetite Grade 2, percent of patients: (16) %
  Decreased appetite Grade 3, patients: 0
  Decreased appetite Total, patients: 7
  Decreased appetite Total, percent of patients: (19) %
  Fatigue Grade 1, patients: 4
  Fatigue Grade 1, percent of patients: (11) %
  Fatigue Grade 2, patients: 7
  Fatigue Grade 2, percent of patients: (19) %
  Fatigue Grade 3, patients: 0
  Fatigue Total, patients: 11
  Fatigue Total, percent of patients: (30) %
  Gamma-glutamyltransferase (GGT) increased Grade 1, patients: 3
  Gamma-glutamyltransferase (GGT) increased Grade 1, percent of patients: (8) %
  Gamma-glutamyltransferase (GGT) increased Grade 2, patients: 1
  Gamma-glutamyltransferase (GGT) increased Grade 2, percent of patients: (3) %
  Gamma-glutamyltransferase (GGT) increased Grade 3, patients: 0
  Gamma-glutamyltransferase (GGT) increased Total, patients: 4
  Gamma-glutamyltransferase (GGT) increased Total, percent of patients: (11) %
  Headache Grade 1, patients: 5
  Headache Grade 1, percent of patients: (14) %
  Headache Grade 2, patients: 5
  Headache Grade 2, percent of patients: (14) %
  Headache Grade 3, patients: 0
  Headache Total, patients: 10
  Headache Total, percent of patients: (27) %
  Myalgia Grade 1, patients: 3
  Myalgia Grade 1, percent of patients: (8) %
  Myalgia Grade 2, patients: 1
  Myalgia Grade 2, percent of patients: (3) %
  Myalgia Grade 3, patients: 0
  Myalgia Total, patients: 4
  Myalgia Total, percent of patients: (11) %
  Nausea Grade 1, patients: 12
  Nausea Grade 1, percent of patients: (32) %
  Nausea Grade 2, patients: 2
  Nausea Grade 2, percent of patients: (5) %
  Nausea Grade 3, patients: 0
  Nausea Total, patients: 14
  Nausea Total, percent of patients: (38) %
  Pyrexia Grade 1, patients: 3
  Pyrexia Grade 1, percent of patients: (8) %
  Pyrexia Grade 2, patients: 1
  Pyrexia Grade 2, percent of patients: (3) %
  Pyrexia Grade 3, patients: 0
  Pyrexia Total, patients: 4
  Pyrexia Total, percent of patients: (10) %
  Vomiting Grade 1, patients: 4
  Vomiting Grade 1, percent of patients: (11) %
  Vomiting Grade 2, patients: 1
  Vomiting Grade 2, percent of patients: (3) %
  Vomiting Grade 3, patients: 0
  Vomiting Total, patients: 5
  Vomiting Total, percent of patients: (14) %
As of February 2019
  grade of treatment-related adverse events (TRAEs): Grade 1 or 2
  most common TRAEs: anemia, arthralgias, fatigue, vomiting, anorexia, AST increase, diarrhea, dyspnea (unrelated or unlikely related), hypoalbuminema (unrelated or unlikely related), hypoxia (unrelated), headache, nausea, proteinuria and vomiting
  number of SAEs related to study drug: Two
As of May 10, 2019
  Grade 4 or 5 TRAE: no Grade 4 or 5 TRAE
  grade of adverse events: most adverse events being Grade 1 or 2
  number of SAEs unrelated or unlikely related to treatment: Seventeen
  number of possible treatment related SAEs: Two
  patients with SAEs unrelated or unlikely related to treatment: 11
  tolerability: well tolerated
  toxicities often associated with microtubule-targeting agents or ADCs (neutropenia, ocular toxicities, peripheral neuropathy): Low rate
At DL 5A (30 mg/m^2) and DL 6 (40 mg/m^2)
  number of dose limiting toxicities: Two
conclusions
  MTD / RP2D: Neither MTD nor RP2D has been identified
Maximum doses administered (40 mg/m^2)
  tolerability: well tolerated
Up to the 30 mg/m^2 or 36 mg/m^2 or 43 mg/m^2 dose level
  tolerability: well-tolerated
